“Also recorded” adds a separate entry of the source.
Assays:
[1] = biological target: T1, purified human α5β1-integrin (Homo sapiens, UniProt P05556+P08648); assay: Solid phase dot-ELISA: α5β1-integrin binding to immobilized uPAR peptides and suPAR; conditions: for α5β1-integrin binding to immobilized peptide: peptide immobilized on nitrocellulose, α5β1-integrin 750 ng/ml
T1 construct: purchased Chemicon International (Temecula, Calif.)
Experimental: FIGS. 1A-H show the interaction between α5β1-integrin and immobilized uPAR and uPAR-derived synthetic peptides through solid-phase dot-ELISA. […] Bound integrin was detected with anti-α5 integrin antibody followed by goat anti-rabbit IgG (H+L) HRP conjugated secondary antibody and developed with enhanced chemiluminescence (“ECL”). FIG. 1B is a graph showing that binding of integrin to suPAR is saturable. SuPAR (1.5 μg) was immobilized on nitrocellulose membrane in triplicates, incubated with 0, 0.1, 0.5, 1, 2, and 4 μg/ml of α5β1-integrin and tested for integrin binding as in FIG. 1A. The dots were scanned with NIH Image. Mean and SE are shown. […] Peptides representing regions located in each of the three uPAR-domains were immobilized, incubated with α5β1-integrin, and analyzed as in FIG. 1A. Only peptide 240-248 binds α5β1-integrin. FIG. 1D is a graph showing that peptide 240-248 inhibits integrin binding to suPAR. The α5β1-integrin (750 ng/ml) was pre-incubated for 15 min at room temperature with 100 fold molar excess of 240-248 or 17-24 peptides, or with no peptide (Control) and the mixtures were applied to immobilized suPAR (1.5 μg), 2 dots per mixture, and developed as in FIG. 1A. The dots were scanned with NIH Image. The results (bars) show % of control, the lines show range. FIG. 1E is a graph showing binding of α5β1- and α3β1-integrin to suPAR and peptide 240-248. Dot-ELISA was performed in duplicate as in FIG. 1A, except that purified α5β1-integrin and α3β1-integrin (750 ng/ml) were used. Bound integrins were detected with the appropriate previously titrated antibodies followed by goat anti-rabbit IgG (H+L) HRP conjugated secondary antibody and detection with ECL. The graph represents the mean and range of two values: α5β1-integrin binding to peptide 240-248 (▪) or SuPAR (▴); α3β1-integrin binding to peptide 240-248 ([…]) and SuPAR (x). […] Peptide 240-248 (domain III), 17-24 (domain I), and the S245A mutant of peptide 240-248 were immobilized and tested for integrin binding as in FIG. 1A. FIGS. 1G-H show the crystal structure of human uPAR shown as a surface representation. The three individual domains of uPAR in FIG. 1G are indicated as follows: D1 is on the right side, DII is on the top of the model, and Diii is on the left of the model. In FIG. 1H, the order of the domains is inversed. […] The location of the COOH-terminal in uPAR domain III harboring the GPI-anchor is indicated by the arrow (FIG. 1H). FIGS. 1G-H were created by the program PyMol (DeLano Scientific) using the coordinates 1YWH.
FIGS. 2A-B show solid phase dot-ELISA of suPAR. […] Binding was detected as in FIG. 1A and the dots were scanned with NIH Image. Mean of the two-scanned value for each suPAR concentration are shown in the bottom panel. Mutation of residues in the 239-249 sequence reduced the integrin binding by ˜50 to 94%. suPAR^E33A (▪), suPAR^wt (▴), suPAR^R239A (♦), suPAR^H249A (x), suPAR^Q248A (∘), suPAR^M246A ([…]), suPAR^S245A (□).
Synthetic uPAR-derived peptides and mutant proteins were diluted to 0.5, 1, and 2 μg/100 μl of PBS. […] The strips, pinned to the bottom of a plastic box, were washed with TBS with 0.1% Tween 20, overlaid with 500 μl of rabbit anti-integrin α5 polyclonal antibody (1:650) for 1 hr at RT, washed with TBST twice, incubated with goat anti-rabbit IgG (H+L) HRP conjugated secondary antibody (1:2000) for 1 hr, washed 3 times with TBST, and developed with ECL. The dots were scanned with NIH image.

T-HEp3 cells [2] = assay: Screening of compounds by luciferase assay (Luc-Elk activity as readout for ERK); type: cell-based, human; conditions: 5 μM compound, 16 h
Experimental: To test the effect of uPAR-integrin disruption by uPAR-docked compounds on ERK activation, T-HEp3 cells were transiently co-transfected with pFA-Elk1-fusion plasmid and pD700-luciferase plasmid in a 96-well plate. These plasmids report the state of ERK activation through luciferase activity level. After 24 h of transfection, cells were serum starved for 5 h and incubated with PD98059 (Calbiochem, San Diego, Calif.) (25 and 50 μM) and 5 μM of each compound prepared in DMEM. Following 16 h of incubation with compounds, the cells were lysed directly in Steady glo-luciferase lysis buffer (1:1) from Promega and read on Tecan Safire2™ using Magellan 6.0 software. Histographs representing the percent inhibition of Luc-Elk activity as readout for ERK reduction were generated.

T-HEp3 cells [3] = assay: Fibronectin-fibrils disruption; type: cell-based, human; conditions: cells displaying fibronectin fibrils; control had 90.2% fibril positive cells; compounds 5 and 10 μM, 16 h
Experimental: To test the effects of fibronectin-fibril disruption by the compounds, T-HEp3 cells were incubated in 5% fibronectin-depleted fetal bovine serum (FBS)/DMEM with 0, 2.5, 5, 7, and 10 μM of the compounds or anti-uPAR antibody (R2, 20 μg/ml) or anti-α5β1 antibody (BIIG2, 20 μg/ml) or MEK inhibitor (PD98059, 25 μM) as a […] at room temperature for 15 min prior to plating them in chambered slides. […] The cells were fixed with 3% paraformaldehyde for 20 min and the bound fibronectin was detected using rabbit anti-human fibronectin antibody and with FITC-conjugated secondary antibody.
Compounds MS0012479 and MS0019128 and their analogs were tested for fibronectin-fibril disruption. […] A total of 700 to 1150 cells were counted in 5 individual fields. Cells displaying fibronectin fibrils were then counted and expressed as a percentage of total cells. The mean obtained from the compound-treated cells was expressed as a percentage of control. The control had 90.2% of fibril positive cells (Table 2).

β1-integrin = biological target: T2, β1-integrin (Homo sapiens, UniProt P05556); assay: Detection of active β1 integrin by FACS (HUTS-4 antibody); type: cell-based; conditions: vector transfected HEK293 cells; 1 mM MnCl2; untreated 50.9%
T2 construct: endogenous in cells; host or cells: HEK293 cells (ATCC), transiently transfected with pcDNA3.1 vector, uPAR^wt or uPAR^S245A
Experimental: FIGS. 3A-C illustrate that […] expressed in cells has reduced ability to activate α5β1-integrin. […] HEK293 cells were transfected with pcDNA3.1 (vector), uPAR^wt, or uPAR^S245A and used 48 hrs later. Vector-transfected cells incubated with medium alone or with medium with 1 mM MnCl2, followed by HUTS-4 and uPAR-transfected cells (uPAR^wt and uPAR^S245A) incubated with HUTS-4 or isotype matched Ig (IgG2b) were then incubated with secondary rabbit-anti mouse IgG coupled to Alexa 488. uPAR expression was detected using anti-uPAR antibody (R2). In the upper panels, the results are plotted as number of events vs. fluorescence intensity. The numbers indicate percent of total population above the median fluorescence intensity determined in vector-transfected cells. The lower panel relates to overlay of uPAR in uPAR^wt (black line) and uPAR^S245A (grey line) transfected cells. […] Cell-bound fibronectin was detected by immunofluorescence 48 hrs after transfection. […] HEK293 cells plated in 60 mm dishes were transfected and treated as in FIG. 3B, and the DOC-insoluble fibronectin was analyzed by 6% PAGE and Western blot under non-reducing conditions. […]
HEK293 cells were transiently transfected with pcDNA3.1, uPAR^wt, and uPAR^S245. […] Finally, cells were washed and suspended in 400 μl of FACS buffer and analyzed in FACS Canto (Becton Dickinson, Calif.) using FACSDiva software. […]

[4] = biological target: α5β1-integrin endogenous on HEK293, D-HEp3 and T-HEp3 cells (human) (UniProt P08648); assay: cell-based or functional assay
[5] = biological target: endogenous β1 integrin on HEK293 cells (active state) (human) (UniProt P05556); assay: flow cytometry, HEK293 cells expressing uPAR^wt
[6] = biological target: endogenous β1 integrin on HEK293 cells (active state) (human) (UniProt P05556); assay: flow cytometry, HEK293 cells expressing uPAR^S245A
[7] = biological target: endogenous β1 integrin on HEK293 cells (active state) (human) (UniProt P05556); assay: flow cytometry, vector-transfected HEK293 cells, medium alone
[8] = biological target: endogenous β1 integrin on HEK293 cells (active state) (human) (UniProt P05556); assay: flow cytometry, vector-transfected HEK293 cells treated with Mn++ (1 mM MnCl2)
[9] = biological target: T3, immobilized pro-uPA^S356A (Homo sapiens, UniProt P00749, S376A); assay: Kinetics of pro-uPA/uPAR interaction by surface plasmon resonance; type: binding; conditions: soluble uPAR (residues 1-283), 20° C.
T3 construct: Coupling of pro-uPA^S356A to the sensor chip by EDC/NHS

Chain of endogenous β1 integrin on HEK293 cells (active state) (human) (P05556 21-798): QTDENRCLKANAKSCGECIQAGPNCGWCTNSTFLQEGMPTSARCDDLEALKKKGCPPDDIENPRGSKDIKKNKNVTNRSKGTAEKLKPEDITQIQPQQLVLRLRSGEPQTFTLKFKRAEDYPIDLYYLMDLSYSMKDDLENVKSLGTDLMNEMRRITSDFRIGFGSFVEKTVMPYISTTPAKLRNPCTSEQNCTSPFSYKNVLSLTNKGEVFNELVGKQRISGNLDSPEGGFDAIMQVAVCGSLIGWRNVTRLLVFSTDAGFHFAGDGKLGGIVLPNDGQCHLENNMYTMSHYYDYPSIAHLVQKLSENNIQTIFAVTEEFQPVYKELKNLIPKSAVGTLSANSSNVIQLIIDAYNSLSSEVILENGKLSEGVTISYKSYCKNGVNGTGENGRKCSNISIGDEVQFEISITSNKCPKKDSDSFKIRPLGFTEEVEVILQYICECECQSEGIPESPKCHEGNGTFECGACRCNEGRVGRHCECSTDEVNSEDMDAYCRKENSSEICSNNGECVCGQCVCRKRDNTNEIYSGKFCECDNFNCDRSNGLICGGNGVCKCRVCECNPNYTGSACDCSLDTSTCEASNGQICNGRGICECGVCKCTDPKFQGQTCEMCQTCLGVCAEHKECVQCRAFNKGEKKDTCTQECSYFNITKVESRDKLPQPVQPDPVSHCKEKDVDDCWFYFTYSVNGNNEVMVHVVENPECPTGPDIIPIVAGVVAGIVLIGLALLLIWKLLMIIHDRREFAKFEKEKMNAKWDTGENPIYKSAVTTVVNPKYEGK
T1 sequence (P08648 42-894 limits assumed): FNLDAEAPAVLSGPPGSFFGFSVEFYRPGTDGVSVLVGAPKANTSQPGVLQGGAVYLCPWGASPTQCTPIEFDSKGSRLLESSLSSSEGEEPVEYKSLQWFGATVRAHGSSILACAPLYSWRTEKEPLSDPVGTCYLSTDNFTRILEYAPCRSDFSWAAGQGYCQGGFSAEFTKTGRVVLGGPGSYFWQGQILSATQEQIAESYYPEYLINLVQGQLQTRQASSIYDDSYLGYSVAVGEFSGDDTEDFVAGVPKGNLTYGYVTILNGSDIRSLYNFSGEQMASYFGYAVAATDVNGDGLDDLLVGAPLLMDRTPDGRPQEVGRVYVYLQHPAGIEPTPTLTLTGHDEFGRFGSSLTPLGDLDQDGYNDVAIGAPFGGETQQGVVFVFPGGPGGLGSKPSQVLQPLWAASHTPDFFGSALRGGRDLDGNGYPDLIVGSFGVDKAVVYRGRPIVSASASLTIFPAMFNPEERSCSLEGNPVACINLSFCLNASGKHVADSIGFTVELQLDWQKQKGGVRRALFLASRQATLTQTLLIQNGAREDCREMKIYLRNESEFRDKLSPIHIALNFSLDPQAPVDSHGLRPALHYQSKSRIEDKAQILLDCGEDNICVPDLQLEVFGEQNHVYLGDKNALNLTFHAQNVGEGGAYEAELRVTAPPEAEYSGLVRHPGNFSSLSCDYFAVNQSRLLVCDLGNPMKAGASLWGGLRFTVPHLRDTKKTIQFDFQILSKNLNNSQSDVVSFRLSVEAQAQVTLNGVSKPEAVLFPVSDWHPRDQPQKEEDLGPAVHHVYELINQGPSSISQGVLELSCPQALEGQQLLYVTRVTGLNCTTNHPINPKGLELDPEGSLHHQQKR
T1 sequence (P08648 895-1049 limits assumed): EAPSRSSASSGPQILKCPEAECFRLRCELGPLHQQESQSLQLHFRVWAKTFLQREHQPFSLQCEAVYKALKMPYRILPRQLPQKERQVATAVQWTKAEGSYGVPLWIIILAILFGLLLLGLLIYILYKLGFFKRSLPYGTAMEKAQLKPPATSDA
T1 sequence (P05556 21-798): as the sequence (P05556 21-798) above
Chain of α5β1-integrin endogenous on HEK293, D-HEp3 and T-HEp3 cells (human) (P08648 42-1049, chain 1 of 2): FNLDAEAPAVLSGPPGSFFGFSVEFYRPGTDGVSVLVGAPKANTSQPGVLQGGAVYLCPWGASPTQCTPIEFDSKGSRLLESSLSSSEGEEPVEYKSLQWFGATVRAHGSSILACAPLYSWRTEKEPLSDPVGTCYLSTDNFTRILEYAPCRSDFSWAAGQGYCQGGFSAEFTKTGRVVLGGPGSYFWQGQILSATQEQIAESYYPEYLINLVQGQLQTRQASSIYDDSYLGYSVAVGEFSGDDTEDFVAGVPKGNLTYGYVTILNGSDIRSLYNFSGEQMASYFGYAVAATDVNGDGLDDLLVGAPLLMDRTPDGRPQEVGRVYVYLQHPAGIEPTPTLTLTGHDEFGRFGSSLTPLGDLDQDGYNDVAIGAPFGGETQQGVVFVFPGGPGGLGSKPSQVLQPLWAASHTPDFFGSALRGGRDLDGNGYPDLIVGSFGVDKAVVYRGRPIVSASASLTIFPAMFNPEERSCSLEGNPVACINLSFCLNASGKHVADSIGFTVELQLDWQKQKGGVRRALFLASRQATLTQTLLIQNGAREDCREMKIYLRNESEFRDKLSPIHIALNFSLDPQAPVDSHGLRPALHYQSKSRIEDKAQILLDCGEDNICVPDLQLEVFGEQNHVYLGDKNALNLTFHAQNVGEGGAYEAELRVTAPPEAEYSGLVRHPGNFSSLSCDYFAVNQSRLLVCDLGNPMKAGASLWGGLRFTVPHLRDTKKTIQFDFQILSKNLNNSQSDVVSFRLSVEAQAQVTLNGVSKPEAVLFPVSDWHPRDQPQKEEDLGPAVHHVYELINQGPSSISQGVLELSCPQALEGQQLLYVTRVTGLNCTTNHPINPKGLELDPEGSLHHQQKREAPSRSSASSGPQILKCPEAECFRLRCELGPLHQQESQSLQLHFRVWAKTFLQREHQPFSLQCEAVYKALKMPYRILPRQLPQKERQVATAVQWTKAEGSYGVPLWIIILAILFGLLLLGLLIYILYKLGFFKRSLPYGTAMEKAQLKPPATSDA
Chain of α5β1-integrin endogenous on HEK293, D-HEp3 and T-HEp3 cells (human) (P05556 21-798, chain 2 of 2, further chain): as the sequence (P05556 21-798) above
T2 sequence (P05556 21-798): as above
T2 sequence (P08648 42-894 partner limits assumed): as the sequence (P08648 42-894 limits assumed) above
T2 sequence (P08648 895-1049 partner limits assumed): as the sequence (P08648 895-1049 limits assumed) above

66-74: synthetic uPAR-derived peptide, domain I 66-74: LTEVVCGLD (SEQ ID NO:6)
α5β1-integrin binding to immobilized peptide [1]: no binding

84-95: synthetic uPAR-derived peptide 84-95: AVTYSRSRYLEC (SEQ ID NO:7)
α5β1-integrin binding to immobilized peptide [1]: no binding

108-118: synthetic uPAR-derived peptide, domain II 108-118: GRHQSLQCRSP (SEQ ID NO:8)
α5β1-integrin binding to immobilized peptide [1]: no binding

N=C(N/N=C\c1cccc(O)c1)c1ccccn1 [MS0019126]
ERK inhibitory activity (T-HEp3 cells [2]): very strong; also recorded: showed ERK inhibitory activity
Quantification (% of control) (T-HEp3 cells [3]): 66.0 % of control

[Mn+2] [Mn^++]
population with fluorescence above the median (HUTS-4) (β1-integrin): 86.2%

BIIG2 (α5β1-integrin function blocking antibody)
fibronectin-fibril positive T-HEp3 cells, % of control [4]: 24.1 % of control

HUTS-4 antibody
% of population with fluorescence intensity above the median [5]: 74.4%
% of population with fluorescence intensity above the median [6]: 44.6%
% of population with fluorescence intensity above the median [7]: 50.9%
% of population with fluorescence intensity above the median [8]: 86.2%

uPAR mutant E33A: purified soluble uPAR (residues 1-283) with single amino acid mutation E33A in domain I
α5β1-integrin binding of full-length recombinant suPAR with single amino acid mutation ([1]; suPAR 0.5, 1.0, 2.0 μg immobilized, integrin 750 ng/ml): no effect
koff [9]: 2.19 10^−4 S^−1
kon [9]: 2.52 10^5 m^−1 S^−1

uPAR mutant H249A: purified soluble uPAR single amino acid mutant H249A
koff [9]: 1.92 10^−4 S^−1
kon [9]: 3.84 10^5 m^−1 S^−1

uPAR mutant L66A: soluble uPAR single site mutant L66A, control known to affect uPA-uPAR interaction
koff [9]: 10.6 10^−4 S^−1
kon [9]: 2.26 10^5 m^−1 S^−1

uPAR mutant R239A: purified soluble uPAR single amino acid mutant R239A
koff [9]: 1.48 10^−4 S^−1
kon [9]: 2.33 10^5 m^−1 S^−1

Reference: patent publication US20100249184A1, “INDUCTION AND/OR MAINTENANCE OF TUMOR DORMANCY BY DISRUPTION OF UROKINASE PLASMINOGEN ACTIVATOR RECEPTOR-INTEGRIN INTERACTION” (MOUNT SINAI SCHOOL OF MEDICINE, priority 2007, published 2010)
